Reference: the supplement of paper PMC10567573

B1: MYBL2 (parent)
chain: VKKSCWTEEEDRIICEAHKVLGNR
B2: PLD5 (parent)
chain: VTYMNMTAYNKGRLQSSFWIVDKQ

Variants of: B1
Assay: protein stability index of a GFP-peptide fusion (GPS, HEK-293T) (PSI 1-6); higher = more stable
Conditions: c terminus: a fixed tail appended
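Further: lentivirally expressed fusions sorted by FACS into six bins by GFP to DsRed ratio, PSI derived from sequencing read proportions per bin multiplied by bin number.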

Protein stability index, by site and new letter:
R12: T 3.2 | A 3.29 | P 3.38 | I 3.38 | F 3.1 | K 4.05 | Y 3.16 | C 2.17 | S 3.25 | D 3.15 | W 2.22 | H 3.55 | L 2.87 | E 3.48 | G 3.58 | Q 3.62 | V 3.28 | N 3.7
E8: Q 3.5 | T 2.45 | D 3.11 | L 2.69 | C 2.61 | F 2.48 | I 1.85 | S 3.51 | P 3.4 | A 3.12 | M 3.37 | Y 2.79 | K 3.17 | H 3.33 | W 2.47 | R 2.9 | N 4.1 | G 2.44 | V 2.85
S4: N 3.51 | T 2.97 | D 3.58 | W 1.98 | Y 2.27 | I 3.21 | R 3 | E 3.82 | L 3.33 | P 3.49 | G 3.53 | C 2.53 | A 3.31 | M 3.06 | F 2.83 | V 3.41 | K 3.49 | Q 3.17 | H 2.77
C15: N 3.65 | R 3.36 | V 3.85 | E 3.94 | L 3.82 | F 2.79 | K 3.47 | Q 3.85 | H 3.76 | S 3.69 | Y 3.01 | G 4.39 | A 3.43 | T 3.74 | P 4.16 | W 2.59 | I 3.47 | D 4.16 | M 2.87
W6: P 4.4 | Q 4.36 | L 3.85 | Y 3.5 | D 4.33 | I 3.7 | F 3.54 | E 4.7 | G 3.97 | N 4.17 | S 4.09 | C 4.48 | V 3.5 | K 4.05 | R 3.87 | H 3.07 | T 3.94 | M 3.99 | A 3.92
E16: L 1.83 | C 1.94 | G 4 | K 3.08 | N 3.15 | F 1.69 | M 1.78 | A 2.84 | I 1.84 | D 3.66 | H 3.1
I13: V 4.55 | F 3 | L 3.06 | Q 4.24 | D 4.37 | W 2.47 | H 3.29 | A 4.41 | P 3.85 | C 2.77 | S 4.32 | E 3.5 | T 3.74 | M 3.67 | Y 3.01 | K 3.82 | R 3.19 | G 4.41 | N 3.46
I14: T 4.39 | V 3.71 | F 2.91 | C 3.3 | R 3.7 | G 2.86 | L 3.41 | S 4.11 | P 3.67 | H 4.29 | M 3.29 | N 3.28 | W 3.12 | K 4.53 | D 3.69 | Q 4 | Y 3.23 | A 4.24 | E 4.24
K3: R 3.3 | C 2.39 | D 3.54 | W 2.21 | I 2.4 | P 3.14 | F 2.69 | Y 2.76 | M 2.78 | V 2.52 | L 2.49 | H 3.26 | S 3.12 | Q 3.27 | N 2.78 | T 2.76 | G 3.38 | A 3.43 | E 4.1
C5: S 4.1 | P 3.69 | E 4.19 | Q 4.21 | K 3.53 | W 2.73 | R 3.88 | A 3.47 | T 3.79 | F 3.22 | Y 3.47 | D 3.77 | I 3.24 | N 3.38 | V 3.31 | L 2.01 | M 3 | G 3.75 | H 3.63
E10: F 1.99 | V 2.13 | Q 3.26 | G 3.15 | K 2.99 | H 3.08 | A 2.38 | W 1.78 | N 3.21 | R 2.65 | T 2.47 | S 2.96 | M 1.99 | P 2.99 | L 2.06 | I 2.39 | Y 2.28 | D 3.1 | C 2.27
V1: I 3.23 | N 3.33 | T 3.78 | C 3.04 | P 3.66 | D 3.35 | E 3.07 | K 3.34 | L 3.02 | M 3.32 | W 3.12 | G 3.32 | H 3.69 | Q 3.23 | Y 2.71 | R 3.9 | A 3.19 | F 2.87 | S 3.35
E9: R 2.58 | C 2.6 | V 2.45 | S 2.66 | Y 2.16 | M 2.1 | W 2.35 | N 3.3 | G 2.8 | K 3.37 | L 2.98 | P 2.82 | T 3.28 | F 2.31 | Q 3.45 | A 2.59 | I 2.57 | D 3.34 | H 2.69
K2: G 3.46 | W 2.3 | Q 3.6 | S 3.8 | L 2.98 | D 4.25 | T 2.97 | I 2.89 | Y 3.35 | E 3.19 | V 2.76 | R 3.54 | P 3.47 | F 2.86 | M 2.92 | N 3.43 | C 2.31 | H 3.25 | A 3.28
D11: F 1.59 | Y 2.38 | S 2.8 | W 2.42 | M 2.12 | L 2.21 | K 2.74 | R 2.85 | H 3.57 | N 3.72 | Q 3 | A 2.95 | T 2.83 | V 3.39 | C 2.53 | P 2.76 | G 3.01 | E 3.43 | I 1.71
T7: A 2.98 | W 2.32 | C 3.05 | F 2.2 | N 3.14 | I 4 | Q 2.59 | D 3.76 | G 3.02 | E 2.82 | P 3.65 | V 3.54 | S 2.83 | H 2.95 | Y 2.93 | L 3.11 | K 3.51 | M 3.03 | R 3.59

Variants of: B2
Assay: as above
Conditions: c terminus: a fixed tail appended

Protein stability index, by site and new letter:
Q24: I 2.52 | R 2.46 | T 2.79 | D 1.85 | E 1.48 | S 2.22 | K 1.24 | P 2.67 | N 2.11 | A 2.28 | H 2.19 | M 3.08
D22: H 3.52 | K 2.53 | M 3.38 | P 2.11 | N 3.19 | T 3.51 | C 3.67 | E 1.21 | R 3.44
K23: A 3.81 | Y 2.52 | P 2.67 | Q 1.74 | D 2.85 | H 2.49 | L 4.23 | M 3.22 | T 3.52 | E 3.18 | C 1.95 | I 2.33 | R 2.17 | N 3.33
V21: Y 1.81 | T 2.43 | R 1.7 | S 1.55
